Measured values taken from publication PMC9170038, “Crowdsourced RNA design discovers diverse, reversible, efficient, self-contained molecular switches”.

B1: Eterna 7730299 (Same State - Arginine B) (ssRNA)
RNA: UGUAUGGACUGAAGGAGCGGGUAAAUAACCUGAGGAUCACCCAGGUAAAAGGCGAAAGCCACCCAGGUAGGUCGCAGUCCAUACU
B2: Eterna 1615 (Same State - Theophylline A) (ssRNA)
RNA: UGCACCAGUGAUGUUGGUCGGCACCGAGAUACCAGCUGAUCUCUUAGCCCUUGGCAGCUCUUUAUUCGCGUUAUCAGUUUCUUCG
B3: Eterna 10494 (Sensor v3, turn-off variant 2) (ssRNA)
RNA: AGUACUAACACGAAAGUGUUAGUCCAAUAAGCUUGUGAAACAUGAGGAUCACCCAUGUCCUCAUAAGCUCGUCUUAU
B4: Eterna 7702594 (Exclusion - Arginine B) (ssRNA)
RNA: GUUACGCAUGGAAGGAGCGCACUCCGAUUGAUCGACACAGUGAUGUUGUGGUUCGUUCGAAUGCAGGUAGGUCGCCAUGUGUAAC
B5: Eterna 7721560 (Exclusion - FMN A) (ssRNA)
RNA: CGAGUGAUGUUCGUUUUAAAAUUUUUUUGACAGGAUAUGCGGAAACGCAGAAGGGUCACCUUUGAGUUAAAAGAAAUUAAAUUUU
B6: Eterna 7694710 (Exclusion - FMN B) (ssRNA)
RNA: GGAUAGGACAGAGGAUAUGGACAGUCUACAAAGUAGGCUGAAAAUCCUUGAAUGGAAGUGAUGUUUCUAGAAGGCUGUCCUAUCG
B7: Eterna 7687669 (Same State - Tryptophan B) (ssRNA)
RNA: UUUAUUAAGACGGCCGCCACUGAUUCAUAGUGAUGUUAUGAUAUAAUCUUAGUGAUAUUUAUAAACAGGACCGGGUCAAUUAUUA
B8: Eterna 7696143 (Exclusion - Theophylline B) (ssRNA)
RNA: UGAUACCAGACUGAUACCAGCCAGUGAUGUUGGCUAAUCCAAGAAGGAGUCAAAGACUCCGGCCCUUGGCAGCAGUCUGGUAUCU
B9: Eterna 7692279 (Exclusion - Arginine B) (ssRNA)
RNA: AUUUUUUACAGAAGGAGCGUGUUUUAAUAAUCAUGGUGCUUAGCGAGUGAUGUUCGCUUUACACAGGUAGGUCGCUGUUUAUUUA
B10: Eterna 7675404 (Same State - Tryptophan A) (ssRNA)
RNA: UGGCGAGUGAUGUUCGUUGUUGUAGUGUGUCGAGGACCGGUACGGCCGCCACUCGAGUUGGUUGUUGUUGUUGCUGUUGUUGCUG
B11: Eterna 7761084 (Exclusion - FMN A) (ssRNA)
RNA: CGAGUGAUGUUCGUUCGUAUAUUUGGGUGACAGGAUAUGCGGAAACGCAGAAGGGUCGCCUUCGGGUUACCCGAAUUGGCGUUUU
B12: Eterna 7626312 (Exclusion - Theophylline A) (ssRNA)
RNA: AGAUGCCACUGUGGAUAGCACGAUGCCGAUACCAGCUAGGAAACUAGCCCUUGGCAGCGGUACAUGAGGAUCACCCAUGUAUCCU
B13: Eterna 7727764 (Exclusion - Tryptophan B) (ssRNA)
RNA: AAUAAACAGUCGGCCGCCACUUCAAUAGACUUAUUAUUGAAUGGUGUAGUUCUUCAGUGAUGUUGAAGGACCGGGACUUUCGCGC
B14: Eterna 7692524 (Same State - Theophylline A) (ssRNA)
RNA: UGAUAAUGCAGUGAUGUUGCUAGAAACGAUACCAGUUAAGAAAAGAACCCUUGGCAGCGUAAAGUGCGCUCUAAUGAGUGUGCUU
B15: Eterna 7716457 (Exclusion - Theophylline B) (ssRNA)
RNA: CGUUUAUAGCAGGAUACCAGUACCCAUUAUGUACGUUUAUAGUAGAGUGAUGUUCUAAAGUACCCUUGGCAGCUUCCCGUGACCC
B16: Eterna 6430181 (Small Loop Exclusion NG 3) (ssRNA)
RNA: UAUAGCCCUAGUUCGAGUGUCUAGGAGGAUAUACAGAGGCAGCCAAAGACAUGAGGAUCACCCAUGUAGAAGGCCUAGACGGUA
B17: Eterna 7700638 (Same State - FMN B) (ssRNA)
RNA: ACCUAGUACGUAGGAUAUCGAACAUCAUUUAGUGAGAUCGAGUGAUGUUCGAUCACGUCUUCAGUUCGAGAAGGACGUACUAGGA
B18: Eterna 5954774 (Same State NG 2) (ssRNA)
RNA: GUAGCAUACCGAGGAUAUUCAUAUAAUACAUGAGGAUCACCCAUGUUAUAUAGGCGAAAGCCUUGGGAGAAGGCGGAAUGCUAC
B19: Eterna 7710066 (Exclusion - Tryptophan A) (ssRNA)
RNA: AGCUGGGAUCCUCAGCGUCAAAGACGCAGUCGAGGACCGGUACGGCCGCCACUCGACACGAGGAUCACCCGUGUCAUUCCCAGCA
B20: Eterna 7721239 (Exclusion - Theophylline B) (ssRNA)
RNA: GGAAUAACCUGGGAUACCAGUCGGAGGACUAGGGAUCGGAGUGAUGUUCUGGGAUGUUUCGGCCCUUGGCAGCUCUGGUUUUCCG
B21: Eterna 7702469 (Exclusion - Arginine B) (ssRNA)
RNA: GUUACGCAUGGAAGGAGCGCGAAAAUUUAUAGUGAGUGAUGUUCACAAAUAAGAAUAAUAACGCAGGUAGGUCGCCAUGUGUAAC
B22: Eterna 7685149 (Same State - Theophylline B) (ssRNA)
RNA: AAGUGUUCUAGUGAUACCAGACAAUUUUAUUUUUUCUUUUUUGCUAAGUGAUGUUUAGCAGUCCCUUGGCAGCACUAUUUCACUA
B23: Eterna 6084833 (Exclusion 5) (ssRNA)
RNA: UCAUGCUAAGGAUAUGACGUCGGCUACAUGAGGAUCACCCAUGUGGGUUCGUUAUGGCCAUUAGAAGGUAGCGAUU
B24: Eterna 7727640 (Exclusion - Tryptophan A) (ssRNA)
RNA: GGCCUGGUCGCCUAGUGAUUGUCGGUAGGACGAGGACCGGUACGGCCGCCACUCGGCUUACCCAGUGAUGUUGGGUAUCCGUGGC
B25: Eterna 6436150 (Inverted Small Loop Exclusion NG 3) (ssRNA)
RNA: AACCGCGACCGGCCUGGCACGCCGAGAAGGGUACGUGACCUGCUUUACAUGAGGAUCACCCAUGUACAGGAUAUCGGAUAGCCG
B26: Eterna 7758370 (Same State - Tryptophan B) (ssRNA)
RNA: UGUCAUUGGUCGGCCGCCACUUCAUAAAGAGUGAUGUUCUUAAAGACGGAUCGAAAGAUCUGUCGAAGGACCGGGACCGAUGACU
B27: Eterna 7693586 (Exclusion - Tryptophan B) (ssRNA)
RNA: GGAUAGGACACGGCCGCCACUACCGAGGAUACUCGAAACAUUUCCUCAGAUGAGUGAUGUUCAUCUAGGACCGGGUGUCCUAUCG
B28: Eterna 7751925 (Exclusion - Tryptophan B) (ssRNA)
RNA: GGUAGCAUGGCGGCCGCCACUAAGAGAGUGAUGUUCUCUUAGUUUUUUGAUGUGUUAUCAAUUCUUAGGACCGGGCCAUGCUACC
B29: Eterna 7740495 (Exclusion - Theophylline A) (ssRNA)
RNA: UCCUGCAAUCGUCCACGAAAGUGGAUCGAUACCAGAGUCGAAAGACUCCCUUGGCAGCGAGUGAUGUUCGAAGCAGGUAAAUAAA
B30: Eterna 7730249 (Same State - Arginine B) (ssRNA)
RNA: UGUAUGGACUGAAGGAGCGCCUCAAAAUAGCAUGAGGAUCACCCAUGCAAGGCGAAAGCCGGGCAGGUAGGUCGCAGUCCAUACU

These binders were tested against MS2 coat protein, dlFG mutant (Escherichia phage MS2, UniProt P03612, del68-81insG) (assay: 4 mM Mg2+; no ligand; RNA-MaP array; 100 mM Tris-HCl pH 7.5, 80 mM KCl, 4 mM MgCl2, 0.1 mg/mL BSA, 1 mM DTT, 0.01 mg/mL yeast tRNA, 0.01% Tween-20; protein 1.5 nM to 3 uM; 37 C (Table S3)). Conditions: chain copies: 2; label: tethered by stalled RNA polymerase.

Compared with B1, B2 is higher in Kd: 10.9 nM for the first, over 3000 nM for the second. The first binds more tightly here.

Going from B3 to B4, the Kd rises from 15.2 nM to over 3000 nM. The first binds more tightly here.

B5 and B6 cannot be ordered by Kd: over 3000 nM for the first, over 3000 nM for the second.

B7 and B8 cannot be ordered by Kd: over 3000 nM for the first, over 3000 nM for the second.

B9 and B10 cannot be ordered by Kd: over 3000 nM for the first, over 3000 nM for the second.

Going from B11 to B12, the Kd falls from over 3000 nM to 13.2 nM. The second binds more tightly here.

B13 and B14 cannot be ordered by Kd: over 3000 nM for the first, over 3000 nM for the second.

Compared with B15, B16 is lower in Kd: over 3000 nM for the first, 13.6 nM for the second.

Going from B17 to B18, the Kd falls from over 3000 nM to 16.3 nM.

Compared with B19, B20 is higher in Kd: 379 nM for the first, over 3000 nM for the second. The first binds more tightly here.

B21 and B22 cannot be ordered by Kd: over 3000 nM for the first, over 3000 nM for the second.

Compared with B23, B24 is higher in Kd: 19.6 nM for the first, over 3000 nM for the second.

Going from B25 to B26, the Kd rises from 5.68 nM to over 3000 nM. The first binds more tightly here.

B27 and B28 cannot be ordered by Kd: over 3000 nM for the first, over 3000 nM for the second.

Going from B29 to B30, the Kd falls from over 3000 nM to 12.6 nM.
